Assay results taken from FireProtDB (doi:10.1006/jmbi.1999.2852).

Settings: Pseudomonas aeruginosa (strain ATCC 15692 / DSM 22644 / CIP 104116 / JCM 14847 / LMG 12228 / 1C / PRS 101 / PAO1), 10 °C, GdnHCl, Fluorescence, reversible: yes (100%), whole UniProt chain shown
[1] = pH 4, phosphate/acetate 25 mM/25 mM/
[2] = pH 4.7, phosphate/acetate 25 mM/25 mM/

B1: Cytochrome c-551 wild type, P00099 (protein)
chain: MKPYALLSLLATGTLLAQGAWAEDPEVLFKNKGCVACHAIDTKMVGPAYKDVAAKFAGQAGAEAELAQRIKNGSQGVWGPIPMPPNAVSDDEAQTLAKWVLSQK
- denaturant m value (pH 3, citrate 15 mM): 3.3 kcal/mol/M
- denaturant midpoint (higher = more stable) (pH 3, citrate 15 mM): 1 M
- unfolding free energy (pH 3, citrate 15 mM): 13.8 kJ/mol
- denaturant m value [1]: 2.8 kcal/mol/M
- denaturant midpoint (higher = more stable) [1]: 2.1 M
- unfolding free energy [1]: 24.7 kJ/mol
- denaturant m value [2]: 3.1 kcal/mol/M
- denaturant midpoint (higher = more stable) [2]: 2.1 M
- unfolding free energy [2]: 27.6 kJ/mol
- denaturant m value (pH 7, Sodium phosphate 50 mM): 3.3 kcal/mol/M
- denaturant midpoint (higher = more stable) (pH 7, Sodium phosphate 50 mM): 1.8 M
- unfolding free energy (pH 7, Sodium phosphate 50 mM): 25.1 kJ/mol
